Literature values in article PMC10769511.

Biological target: histone H3K4me3 peptide (Homo sapiens) (UniProt P68431)

PHF2 PHD-Jumonji (from UniProt O75151)
Kd: 160 nM
